Results as given in the supplement of paper PMC7125110.
± gives the standard error. Variants at the floor of the assay were thinned out.

B1: glmS ribozyme (parent)
chain: AUAAAAGCGCCAGAACUACAGAAAUGUAGUUGACGAGGAGGAGGUUUAUCGAAUUUUCGGCGGAUGCCUCCAAA

Variants of: B1
Test: self-cleavage kobs at 2500 uM GlcN6P; higher = faster cleavage; RNA array
Conditions: with glucosamine-6-phosphate
Procedure, shortened: (§1)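 Ribozyme variants carrying barcodes were transcribed in situ on sequenced MiSeq chips by E. coli RNA polymerase and tracked at 37 °C with a hybridised Cy3 probe. They were exposed to 40 μM to 10 mM glucosamine-6-phosphate in HEPES/KCl/Mg(OAc)2 buffer. kobs came from exponential decay fits of normalised per-tile medians, and kcat and KM from weighted Michaelis–Menten fits.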

Variant	self-cleavage kobs at 2500 uM GlcN6P [s⁻¹]
C16U A42G U57C	0.000189 ± 6.6e-05
A12U G13U A33G A39U A48U	< 1e-05
A14G G29A A36U	< 1e-05
G29C A39C A48U U49C U57A G60A C61A C67A	< 1e-05
U30A A36C U45C	< 1e-05
A15U A33C U45G G51U U55G	< 1e-05
A14U C50G G60C	0.000405 ± 0.00014
A12G U49G A64G	9.53e-05 ± 2.8e-05
A15U G29A G35U G37A U54A	< 1e-05
C16G G38A U47C G62A	< 1e-05
C16G G51U U57G	< 1e-05
A15C G44A C58G G62U	< 1e-05
G26U A48G	7.11e-05 ± 1.8e-05
A14U G37C A42C	< 1e-05
U30A G63A U69C	< 1e-05
C16A C34U G51U	< 1e-05
C16U U57A C70A	8.78e-05 ± 3.6e-05
G29A U65C	6.71e-05 ± 1.9e-05
A14G G63C A64U	< 1e-05
A12U G41U U46C	9.28e-05 ± 3.6e-05
G13U A15U U30G G59C	< 1e-05
C16G G43A U57A G66U U69A	< 1e-05
C16A G63C C67G	< 1e-05
A12G U56A U57C	< 1e-05
G29C U30C G32U A52C	< 1e-05
A12U G32U G43C	< 1e-05
G29A G35C C71A	< 1e-05

Variant	self-cleavage kobs at 2500 uM GlcN6P [s⁻¹]
A15C G35C U69C	< 1e-05
A15U U31A C70A	6.54e-05 ± 2.7e-05
G29A A42C A64U	< 1e-05
A15U G35C G38U U47G U69G	< 1e-05
G29U U47A U69G	7.38e-05 ± 1.7e-05
G29U A42C C61A	< 1e-05
A14U U31A U69A	0.000236 ± 5.6e-05
G29C G59A G66C	< 1e-05
C16G U65A C71U	0.000341 ± 8.1e-05
G13A G32U G35C A39C	< 1e-05
C16U C50G U54A	9.89e-05 ± 3.1e-05
A14G G38C C61U	< 1e-05
C16A A36U C68G	0.000692 ± 0.0002
A14U U30A A39C	2.93e-05 ± 1.5e-05
A14C U46C C50A U57C C61U U65C	< 1e-05
A15U U30G C58U	2.92e-05 ± 1.5e-05
A15C G37A U65G	8.59e-05 ± 2.6e-05
G29C C34G G51U U54A U65A C70U	< 1e-05
G29U G32C A42C U57G	< 1e-05
A15C A36C A48U U57C	< 1e-05
U30G A42G G66U C71A	4.6e-05 ± 2.2e-05
A14C G21U	0.00132 ± 0.00031
U30C G35U G51A A53U U56C	< 1e-05
U30G G35A G51A C70A	< 1e-05
G13A A52U U54C	< 1e-05
G26U U65A	0.00219 ± 0.00042
A14C A15G U46C C61G	< 1e-05

Variant	self-cleavage kobs at 2500 uM GlcN6P [s⁻¹]
G13C A15C G59A	< 1e-05
G29U A36U A42U U56G G66U	< 1e-05
A12U U31C G44U C67A	0.00303 ± 0.001
A15U C58G C68U	6.36e-05 ± 2.9e-05
C16G G44U C70A	< 1e-05
C16U G35U G38U C50A	< 1e-05
G13C A14G C68U	8.88e-05 ± 2.7e-05
G13A U30G A53U	0.000141 ± 4.4e-05
A14U A48G C58A A64U C70G	5.92e-05 ± 2.4e-05
A14G A36C U54C	< 1e-05
A14G G40A G41C	0.00048 ± 0.0001
G13U U54A U65A	5.74e-05 ± 1.5e-05
A22C C34G A42C C50U G66U C68U U69G C70G C71U	< 1e-05
A15U U55G G66U	7.43e-05 ± 1.6e-05
C16G U54C C70U	0.00152 ± 0.00038
A15C U45G U54A	0.000589 ± 0.00012
A15G U45C U65G C67U	0.000125 ± 3.7e-05
A14G G40C G41C A48G C71G	< 1e-05
A14U G29U G32C U56C C68A C70U	< 1e-05
U30A G51A C61U	< 1e-05
G13U G29C G40C C50U A52C	< 1e-05
A14U A15U U56A G59C G63C	< 1e-05
G13A G51C C67G	< 1e-05
U30C U47A U57C	< 1e-05
A12U G35A A39G U45C C61U	< 1e-05
A14G G32C C58A A64G	9.27e-05 ± 3e-05

Variants of: B1
Test: self-cleavage kobs at 10000 uM GlcN6P; higher = faster cleavage; RNA array
Conditions: with glucosamine-6-phosphate
Procedure, shortened: as §1

Variant	self-cleavage kobs at 10000 uM GlcN6P [s⁻¹]
C16U A42G U57C	0.00018 ± 4.1e-05
A12G U49G A64G	7.02e-05 ± 2e-05
G29A U65C	8.99e-05 ± 3.1e-05
G29A G35C C71A	< 1e-05
A15U G35C G38U U47G U69G	0.000954 ± 0.0003
G29U A42C C61A	< 1e-05
C16G U65A C71U	0.000346 ± 8.7e-05
U30C G35U G51A A53U U56C	< 1e-05
U30A G51A C61U	< 1e-05
